Laboratory results: patent US20180016312A1 (Pieris, published 2018)

T1: human angiopoietin-2 (human, UniProt O15123 19-496, limits assumed)
T1 construct: Bought recombinant protein with a His tag (detected by anti-HIS-tag antibody); also called human Ang-2; hAng-2
T1 sequence (looked up): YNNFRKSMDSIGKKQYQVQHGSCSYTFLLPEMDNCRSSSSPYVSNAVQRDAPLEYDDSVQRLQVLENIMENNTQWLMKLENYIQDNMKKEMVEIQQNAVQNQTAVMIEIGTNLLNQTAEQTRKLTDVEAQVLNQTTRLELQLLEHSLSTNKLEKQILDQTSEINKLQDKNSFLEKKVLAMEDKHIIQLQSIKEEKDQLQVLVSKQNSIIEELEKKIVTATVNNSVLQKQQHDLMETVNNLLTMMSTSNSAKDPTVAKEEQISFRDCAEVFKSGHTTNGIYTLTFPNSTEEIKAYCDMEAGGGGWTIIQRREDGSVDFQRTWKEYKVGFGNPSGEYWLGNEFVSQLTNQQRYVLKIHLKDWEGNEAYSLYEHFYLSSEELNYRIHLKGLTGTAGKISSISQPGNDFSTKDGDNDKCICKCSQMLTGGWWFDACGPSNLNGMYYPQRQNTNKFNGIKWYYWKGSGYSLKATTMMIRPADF

T2: mouse angiopoietin-2 (mouse, UniProt O35608 19-496, limits assumed)
T2 construct: Bought recombinant protein; also called mouse Ang-2; mAng-2
T2 sequence (looked up): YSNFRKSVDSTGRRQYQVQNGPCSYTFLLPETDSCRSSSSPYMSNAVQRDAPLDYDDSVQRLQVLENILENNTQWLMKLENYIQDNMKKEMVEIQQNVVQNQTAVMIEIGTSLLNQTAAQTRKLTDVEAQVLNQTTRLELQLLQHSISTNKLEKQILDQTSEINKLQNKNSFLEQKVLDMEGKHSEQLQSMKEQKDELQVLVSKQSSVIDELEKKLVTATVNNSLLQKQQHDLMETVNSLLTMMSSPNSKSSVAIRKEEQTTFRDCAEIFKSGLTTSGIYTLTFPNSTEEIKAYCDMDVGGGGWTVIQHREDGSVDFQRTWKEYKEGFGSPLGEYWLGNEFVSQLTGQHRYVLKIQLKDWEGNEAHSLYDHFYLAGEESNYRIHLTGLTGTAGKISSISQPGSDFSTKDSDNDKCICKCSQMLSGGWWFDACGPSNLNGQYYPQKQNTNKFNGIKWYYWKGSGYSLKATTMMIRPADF


Tests used:
[1] = molecular target: T1, human angiopoietin-2; assay: competition ELISA; 0.5 nM hAng-2 pre-incubated with binder, free hAng-2 captured on hTie-2 Fc (competitor)
Description: All incubation steps were performed with shaking at 300 rpm, and the plate was washed after each incubation step with 80 μl PBS-T buffer (PBS, 0.05% Tween 20) for five times using a Biotek EL405 select CW washer (Biotek). In the first step, a 384 well plate was directly coated with 20 μl of soluble human hTie-2 Fc (Reliatech) at a concentration of […] in PBS over night at 4 ° C. After washing, h Tie-2 Fc coated wells were blocked with 60 μl PBS-T/BSA (2% BSA in PBS containing 0.1% Tween 20) for 1 h at room temperature.
Curve fitting was performed using GraphPad Prism 4 software.

[2] = molecular target: T1, human angiopoietin-2; assay: competition cell ECL; hAng-2 pre-incubated with binder, free Ang-2 captured on HEK:hTie-2 cells (competitor)
Description: (§1) All incubation steps were performed at room temperature, and the plate was washed after each incubation step with 80 μl PBS buffer for two times using a Biotek EL405 select CW washer (Biotek). In the first step, a 384 well plate was precoated for 5 minutes with poly D lysine and washed twice with PBS. 10⁴ HEK:hTie-2 cells per well were seeded and allowed to adhere to the surface of the wells overnight at 37° C. . After washing, cell coated wells were blocked with 60 μl PBS/Casein (2% Casein in PBS) for 1 h at room temperature.
(§2) After washing, 35 μl surfactant-free reading buffer was added to each well and the ECL signal of every well was read using a Mesoscale Discovery reader.

[3] = molecular target: T2, mouse angiopoietin-2; assay: competition cell ECL; mAng-2 pre-incubated with binder, free Ang-2 captured on HEK:hTie-2 cells (competitor)
Description: as §1, §2

[4] = molecular target: T1, human angiopoietin-2; assay: cell-based or functional assay
[5] = molecular target: T1, human angiopoietin-2; assay: ELISA; Ang-2 coated, mutein detected by anti-Streptag-HRP
Description: Binding of muteins was tested by a sandwich ELISA assay.
20 μl of serially diluted muteins were incubated in PBS-T/BSA for 1h at room temperature (RT).
The residual supernatants were discarded and 20 μl HRP-labeled anti-Streptag antibody was added at a predetermined optimal concentration in PBS-T/BSA and incubated for 1 h at RT. After washing, 20 μl fluorogenic HRP substrate (QuantaBlu, Thermo) was added to each well, and the reaction was allowed to proceed for 15 to 60 minutes. The fluorescence intensity of every well on the plate was read using a fluorescence microplate reader (Tecan or Molecular Devices). Curve fitting was performed using GraphPad Prism 4 software.

[6] = molecular target: T1, human angiopoietin-2; assay: SPR Biacore T200; biotinylated mutein captured, hAng-2 analyte, 1:1 model, 25 C
Description: In the SPR affinity assay, biotinylated muteins and negative control were captured on a sensor chip CAP using the Biotin CAPture Kit (GE Healthcare): Sensor Chip CAP is pre-immobilized with an ssDNA oligo. Undiluted Biotin CAPture Reagent (streptavidin conjugated with the complementary ss-DNA oligo) was applied at a flow rate of 2 μl/min for 300 s. Subsequently, 0.02 μg/mL of biotinylated muteins or negative control were applied for 300 s at a flow rate of 5 μl/min. […] The reference channel was loaded with Biotin CAPture Reagent only.
Applying a flow rate of 30 μL/min, a multi cycle kinetics approach was used with a sample contact time of 180 s and a dissociation time of 4600 s. All measurements were performed at 25° C. […] Data were evaluated with Biacore T200 Evaluation software (V 1.0). Double referencing was used. A 1:1 Binding model was used to fit the raw data even though the analyte was known to be a multimer.

Row | Binder | IC50 [1] | IC50 [2] | IC50 [3] | IC50 mean, LEC proliferation assay (CellTiter-Glo) [4] | EC50 [5] | Kd [6] | koff [6]
1 | hNGAL lipocalin mutein SEQ ID NO: 13 (designed binder, Mutein of mature hNGAL) QDSTSDLIPAPPLSKVPLQQNFQDNQFHGKWYVVGVAGNWYLREDKDPIKMTATIYELKEDKSYDVTQVGFEQEKCKYSIHTFVPGSQPGEFTLGDIKSWPGDTSPLVRVVSTNYNQHAMVFFKGMMQDREVFAITLYGRTKELTSELKENFIRFSKSLGLPENHIVFPVPIDQCIDGSAWSHPQFEK | 0.184 nM | 5.43 nM | 7.34 nM | – | – | – | –
2 | hNGAL lipocalin mutein SEQ ID NO: 14 (designed binder, Mutein of mature hNGAL) QDSTSDLIPAPPLSKVPLQQNFQDNQFHGKWYVVGMAGNWDLREDKDPIKMTATIYELKEDKSYDVTQVAFEQKKCKYSIHTFVPGSQPGEFTLGQIKSWPGDTSPLVRVVSTNYNQHAMVFFKGVMQNREVFAITLYGRTKELTSELKENFIRFSKSLGLPENHIVFPVPIDQCIDGSAWSHPQFEK | 0.105 nM | 6.41 nM | 2.32 nM | – | – | – | –
3 | hNGAL lipocalin mutein SEQ ID NO: 12 (designed binder, Mutein of mature hNGAL) QDSTSDLIPAPPLSKVPLQQNFQDNQFHGKWYVVGVAGNWYLREDKDPIKMTATIYELKEDKSYDVTQVGFEQEKCKYSIHTFVPGSQPGEFTLGNIKSWPGDTSPLVRVVSTNYDQHAMVFFKGVMQDREVFAITLYGRTKELTSELKENFIRFSKSLGLPENHIVFPVPIDQCIDGSAWSHPQFEK | 0.131 nM | 5.29 nM | 3.12 nM | – | – | – | –
4 | hNGAL lipocalin mutein SEQ ID NO: 3 (designed binder, Mutein of mature hNGAL) QDSTSDLIPAPPLSKVPLQQNFQDNQFHGKWYVVGVAGNWYLREDKDPIKMTATIYELKEDKSYNVTQVGFEQKKCKYSIHTFVPGSQPGEFTLGDIKSWPGDTSLLVRVVSTNYNQHAMVFFKGVMQNREVFAITLYGRTKELTSELKENFIRFSKSLGLPENHIVFPVPIDQCIDGSAWSHPQFEK | 0.319 nM | 10.7 nM | 23.2 nM | 2.81 nM | 2.8 nM | – | –
5 | hNGAL lipocalin mutein SEQ ID NO: 5 (designed binder, Mutein of mature hNGAL) QDSTSDLIPAPPLSKVPLQQNFQDNQFHGKWYVVGQAGNYWLREDKDPIKMSATIYELKEDKSYNVTIVYFTRKKCSYRIYTFVPGSQPGEFTLGPIKSYPGDTSTLVRVVSTNYNQHAMVFFKHVYQNREWFEITLYGRTKELTSELKENFIRFSKSLGLPENHIVFPVPIDQCIDGSAWSHPQFEK | 0.861 nM | – | – | – | 3.5 nM | – | –
6 | hNGAL lipocalin mutein SEQ ID NO: 4 (designed binder, Mutein of mature hNGAL) QDSTSDLIPAPPLSKVPLQQNFQDNQFHGKWYVVGEAGNVELREDKDPVKMTATIYELKEDKSYNVTEVRFWLKKCKYNIHTFVPGSQPGEFTLGAIKSGPGMTSTLVRVVSTNYNQHAMVFFKTVMQNREWFWITLYGRTKELTSELKENFIRFSKSLGLPENHIVFPVPIDQCIDGSAWSHPQFEK | 0.412 nM | – | – | – | – | – | –
7 | hNGAL lipocalin mutein SEQ ID NO: 2 (designed binder, Mutein of mature hNGAL) QDSTSDLIPAPPLSKVPLQQNFQDNQFHGKWYVVGFAGNHRLREDKDPGKMHATIYELKEDKSYNVTDVTFAFKKCNYRIHTFVPGSQPGEFTLGNIKSWPGETSTLVRVVSTNYNQHAMVFFKTVMQNREWFWITLYGRTKELTSELKENFIRFSKSLGLPENHIVFPVPIDQCIDGSAWSHPQFEK | 1.71 nM | – | – | – | 3 nM | – | –
8 | hNGAL lipocalin mutein SEQ ID NO: 9 (designed binder, Mutein of mature hNGAL; Biotinylated with NHS-PEG4-Biotin for the SPR assay) QDSTSDLIPAPPLSKVPLQQNFQDNQFHGKWYVVGHAGNYILREDKDPGKMWATIYELKEDKSYDVTEVSFGPKKCNYRIWTFVPGSQPGEFTLGGIKSPPGGTSTLVRVVSTNYNQHAMVFFKHVLQNREFFEITLYGRTKELTSELKENFIRFSKSLGLPENHIVFPVPIDQCIDGSAWSHPQFEK | 0.0929 nM | 3.82 nM | 1.39 nM | 0.142 nM | 2.1 nM | 0.29 nM | 9.4e-05 s⁻¹
9 | hNGAL lipocalin mutein SEQ ID NO: 10 (designed binder, Mutein of mature hNGAL) QDSTSDLIPAPPLSKVPLQQNFQDNQFHGKWYVVGQAGNYILREDKDPQKMWATIYELKEDKSYDVTGVSFGAKKCVYRIWTFVPGSQPGEFTLGGIKSPPGGTSTLVRVVSTNYNQHAMVFFKHVLQNREFFEITLYGRTKELTSELKENFIRFSKSLGLPENHIVFPVPIDQCIDGSAWSHPQFEK | 0.0794 nM | 4.63 nM | 1.05 nM | – | – | – | –
10 | hNGAL lipocalin mutein SEQ ID NO: 1 (designed binder, Mutein of mature hNGAL) QDSTSDLIPAPPLSKVPLQQNFQDNQFHGKWYVVGQAGNYILREDKDPGKMWATIYELKEDKSYNVTGVSFGPKKCNYTIWTFVPGSQPGEFTLGGIKSPPGGTSTLVRVVSTNYNQHAMVFFKHVLQNREFFEITLYGRTKELTSELKENFIRFSKSLGLPENHIVFPVPIDQCIDGSAWSHPQFEK | 0.558 nM | 18.9 nM | 3.98 nM | 2.25 nM | 3.7 nM | – | –
11 | hNGAL lipocalin mutein SEQ ID NO: 6 (designed binder, Mutein of mature hNGAL) QDSTSDLIPAPPLSKVPLQQNFQDNQFHGKWYVVGQAGNYILREDKDPEKMWATIYELKEDKSYDVTGVSFGPKKCNYRIWTFVPGSQPGEFTLGGIKSSPGQTSTLVRVVSTNYNQHAMVFFKHVLQNREFFEITLYGRTKELTSELKENFIRFSKSLGLPENHIVFPVPIDQCIDGSAWSHPQFEK | 0.0627 nM | 3.46 nM | 1.21 nM | – | – | – | –
12 | benchmark antibody 1 (SEQ ID NOs: 17/18) (antibody, human IgG1, lambda, V domains shown) VH: not shown VL: QPGLTQPPSVSVAPGQTARITCGGNNIGSKSVHWYQQKPGQAPVLVVYDDSDRPSGIPERFSGSNSGNTATLTISRVEAGDEADYYCQVWDSSSDHYVFGTGTKVTVLG | 0.0158 nM | – | – | 0.0668 nM | – | – | –
